{"source": "the DeepSol protein solubility set"}
{"assay": "soluble on expression in E. coli; label from the status in PepcDB or PDB records"}
{"sequence": "MGSDKIHHHHHHMKLEKILQDLEQNHNLRTLTPLKHENKFVYKQDHKLLNLVGNDYLYLASSKELKAEFLNTLKEQDLFFSSSSSRSLSGNFEIYEKLESFLKTKFKDKEILHFNSGYHLNISCIAALSSVSKTLFLTDKFIHASMIDGLRLGRADFFRFHHKDMNHLESLIQKHYENYENIIVLSEALFSMDGDFSDFKTLCELKRRYDKIKLYIDEAHSVGCFDEEGLGLVKKLALENEVDFLVFTFGKALASMGACIICDEKYKKFFINKARAFIYSTALPPINVAWTQFIFKKMPYFKKEREKLELLSTFFKSKLQEKNHIVLGDAYIICLLLGENKKALEISQKLQKAGFFAPAIKEPTVPKNTARIRFSLHAGLNTEELERIIELL", "soluble on expression in E. coli": "not soluble"}
{"sequence": "MSLGPVGMSGGMDINSMVSKIVDAERVPKQQRIDNDRTTINASISAYGRLRESLDTMKNLMANFRQEKAFAVRTVETTDDNIVSATATTDAIAGKYAIDVLQLAQSHK", "soluble on expression in E. coli": "not soluble"}
{"sequence": "MPFEIGTMPIMSIDPKLLEVLACPQDKGPLKYLEAEQVLVNERLEIAYRIDDGIPVMLVDESIAWPPAEKAAALEHHHHHH", "soluble on expression in E. coli": "not soluble"}
{"sequence": "MCSGYFELKQMFPIIRKIFVEKSNCSSNTHHSKRSIGETAGLKTGERIVGVNGQLIYPTNTHKEVVPLMKQNAMKTTLLEVH", "soluble on expression in E. coli": "not soluble"}
{"sequence": "MRMKKLTTLISAALLSTSVSFVAQAQDTVAIVLSTLNNPFFVTMKDGAEAKAKELGYNLIVLDSQNDPSKELSNVEDLTVRGVKAILINPTDSDAVSNAIRIANRSKIPVLTLDRGASRGEVVSHIASDNVVGGEMAGHFIEAKIGSDAKVIQLEGIAGTSAARERGEGFMNAVKGSKMQLLASQPADFDRTKGLNVMENLLAANPDVQAVFAQNDEMALGALRAIQASGKSVMIVGFDGTDDGIAAVERGQLAATVAQQPDMIGAIGIETADKMLKGEKVEAYIPVALKVIAK", "soluble on expression in E. coli": "not soluble"}
{"sequence": "MGEVRVVGIRVEQPQNQPVLLLREANGDRYLPIWIGQSEAAAIALEQQGVEPPRPLTHDLIRDLIAALGHSLKEVRIVDLQEGTFYADLIFDRNIKVSARPSDSVAIALRVGVPIYVEEAVLAQAGLLIPDESDEEATTAVREDEVEKFKEFLDSVSPDDFKAT", "soluble on expression in E. coli": "soluble"}
{"sequence": "MSLCCISFRVGTGPCVTSGADRLTKGPLRKSAPVSQPEANPKSRSFSGNFLNHTFRRENPMSEITSLVTAEAVKDVLRSEEVRSALKQKLRHNLEARLDAEVDAILDELLGVQAEPPTEAGDTTAESGEVQPESPVADATEPQPESVMMLEGHHHHHH", "soluble on expression in E. coli": "soluble"}
{"sequence": "GPGSMAAVPPQKAANIAQRLQPQCATVGPATLRMSAGKSLKIRENAMYSNMPPPTAFTTPCSATNAGPVMEVCVPFIVMTPIAMPRGTETEKIIVITTSSMTLMEASTSREPSAIPSNSWWNDNATSSVLMSLSLAIPTERPKNTLCEAKPNSIKIAAATRLALFR", "soluble on expression in E. coli": "not soluble"}
{"sequence": "MQWETVIGLEIHAQLATQSKIFSGSSTAFGAAPNTQASLVDLAMPGTLPVLNEEAVRMACLFGLAIDARIDRQNVFARKNYFYPDLPKGYQTSQMDHPIVGKGHLDITLEDGTTKRIGITRAHLEEDAGKSLHEDFQGMSGIDLNRAGTPLLEIVSEPDIRSAKEAVAYVKAIHALVRYLGICDGNMAEGSLRCDCNVSVRPKGQAEFGTRAEIKNVNSFRFIEKAINHEIQRQIELIEDGGKVVQETRLYDPNKDETRSMRGKEEANDYRYFPCPDLLPVVIEPEYLAKLREQLPELPVQKRERFESQYGLSAYDASVLSASREMADYFEKVQGICGDAKLAANWVMVELGSLLNKDGLEIEQSPVSAEQLGGMILRIKDNTISGKLAKMVFEAMANGEGSADQIIEAKGLKQVTDSGAIEKMLDEVLAANAEQVEQYRAADEAKRGKMFGFFVGQAMKASKGKANPQQVNELLKKKLEA", "soluble on expression in E. coli": "not soluble"}
{"sequence": "MGSDKIHHHHHHMSIEIRQVNNLRKKRQFFQYNYQLYKDDPYWVSWPVANLVKMFDPEECGFYEHGILEAWLAYQNGKIVGRIAGSIDGTYNQTYGVQTAFFGFYECIDDQDVSKILFEQVENWAQSYGMTQLLGPFSLSPIYGAGMLIAGFDDSPYVAMPYNRSYYPNQLESSGFKKAKDYNAFRIKGELTIPEFLTKNAQRWRNKRITYRQLNPDQLAQESDLVCDLYNDGFAGQWGYTYIERSEFYQLVLDWIQVIDPRLFLFVLIGDNPVGFGMLVPDVFQILHQTKTLPGLLRYLGRRIFTFGRENEITRYRLDSLCIRKQYQSLGLGVLLWCEIMQQYLNSNYTEIEFSPILEDNTMAQTLLLKLGAERSKVYRVFEKSWCN", "soluble on expression in E. coli": "not soluble"}
{"sequence": "MGSDKIHHHHHHDDSVFTVMDDPSAAKKPFEGVVNAGYLAQSGNTKSSSMTADSTLTWYGNTTAWSLWGNASNTSSNDERSSEKYAVGGRSRYNLTDMNYVFGQGSWLTDRYNGYQQRDVVTAGYGRQILNGPVHSLRFEFGPGVRYDEYTDGDTDTQPLGYASGTWAWQMTDNAKFSQGVSVFGAEDTTVNSESALNVAINAHFALKVAYNVTWNSEPPASAPEHTDRRTSLSLGYKM", "soluble on expression in E. coli": "not soluble"}
{"sequence": "MRKLALVPIQFYRYAISPLMASHCRFYPSCSCYAYEAIDNHGLLRGGWLSIRRLGRCHPWNPGGYDPVPAVPTSRSSSMAELEHHHHHH", "soluble on expression in E. coli": "not soluble"}
{"sequence": "MMNIQVLKVSGNGNINAIADTINKYVIEDGIVHIDAIGIKATYTTVKALIQVVESLVNKGYRFNLRPYYVKVNTAGNDIQPISKTAIRWTLIAKEK", "soluble on expression in E. coli": "soluble"}
{"sequence": "GPGSSISNLSMQTHAARMRTFMYWPSSVPVQPEQLASAGFYYVGRNDDVKCFCCDGGLRCWESGDDPWVEHAKWFPRCEFLIRMKGQEFVDEIQGRY", "soluble on expression in E. coli": "soluble"}
{"sequence": "MSLKCIAIDLDGTLLNKESVISAENREAIKRAVDAGILVTICTGRATFDVKALLDDLDIPIIAANGGTIHDTGYRLISRTLMDQEAGKAIADYLLSKNIYFEVYTDDHLLSPFDGEAKLHAELDILKSANPNEQTDDLWQGAMTQFKQFGIKPIPHIESVFDGGENIYKLLCFSFDMDKLKQAKEELKHHKKLAQTSSGKHIIEILPASSGKGRALTKLADIYGIETQDIYAIGDSPNDLSMFEVAGHRIAMENAIDELKEKSTFVTKSNDENGVAYFIDQLLSGQYAEGHHHHHH", "soluble on expression in E. coli": "soluble"}
{"sequence": "MVGKRNLPVISRNFDLSPGVLRFSASRLRLKKGEKKPKFTKDTSAKLPKLQRNGTKFALGHSKTVTLRKTLTPGTVLIVLAGRHKGKRVVFLKQLPQSGLLLVTGPHKINGFPLRRIGQAFVIATSLKVNVSGVKIPEHINDEYFKRKSTAQKTGKNIFASGKTEYTVSEQRKKDIKTVDAPILAAIKKHPEHKFLFGYLGTRFSLGKNQYPHKMQF", "soluble on expression in E. coli": "not soluble"}
{"sequence": "MQQPEQYCRFLCLVAHEFFHLWNIKRIRPQAFEVFDYDSENYTTSLWFVEGVTSYFDQLIPLWAGLFDAPTYLKLLSDSLNRYFHTPGRFVQSLSAASFDAWIKLYRPDENSINSQMSYYLKGELVALEHHHHHH", "soluble on expression in E. coli": "soluble"}
{"sequence": "MNVTFETTICAWDEKIPALLIRLVNTLLFCRTEEELRQSINKLRETAELDEFFTYGYGSHHFWCNQRISKGSMQFIQSRLFIATF", "soluble on expression in E. coli": "not soluble"}
{"sequence": "METIVQKFGGTSVGSVERIQHVANLIIEEYERGHSIVSVVSAMGKSTDELVALANAITENPSKREMDMLLSTGEQVTISLLTMALQAKGYHAISLTGWQAGITTESVHSSARITDIHTDRIQSYLAEGTIVIVAGFQGVSEDFEITTLGRGGSDTTAVALAAALKAKKCDIYTDVTGVYTTDPRVVKDAYKLDEISYDEMLELANLGAGVLHPRAVEFAKNHNVVLEVRSSMEQENGTIVKGECNMEQQSIVKGIAFEDNITRVTIKGLEQGSLSTVFSTLAAAHINVDIIIQSITNEGTVHLSFSIHSNDLRETLEVLEQNQEALHYEAVEYENHLAKVSIVGSGMVSNPGVAANMFTTLKEEDIHIKMVSTSEIKVSVVIDRLHLVTGVEALHQSFMAKIEPFVQMS", "soluble on expression in E. coli": "not soluble"}
{"sequence": "MGSDKIHHHHHHMNIDEAKQLANYFSDGSPGYILEFNNLEWDLYTKKIVGFGIQERFGGSKGNSFKEFLVSEDISDHLKFKLIYSLNETMKQIASIRQFENPSSYKSPKMNPLVTLLIEEAYHKKDSARLLNGTKFSKEVNLEYIQQLPTRISKDIQNKDFDSVLTKSNTMIDEVLKYIIENTKGKSIDNNTVRSKDLRNQAFERLNIKIDKDMDKRIKALVGALNTLSDKILEMRNSQGDAHAQGSRRIVINEEEAILTANSAMILCEYLFRKYEKRKRFSDAKES", "soluble on expression in E. coli": "not soluble"}
{"sequence": "MVELVISPSLTVNSDCLDKLKFNRADAAVWTLSDRQGITKSAPLRVSQLFSRSCPRVLPRQPSTAMAAYGQTQYSAGIQQATPYTAYPPPAQAYGIPSFSTSPTGQSPYTYQMHGTTGFYQGGNGLGNAAGFGSVHQDYPSYPGFPQSQYPQYYGSSYNPPYVPASSICPSPLSTSTYVLQEASHNVPNQSSESLAGEYNTHNGPSTPAKEGDTDRPHRASDGKLRGRSKRSSDPSPAGDNEIERVFVWDLDETIIIFHSLLTGTFASRYGKDTTTSVRIGLMMEEMIFNLADTHLFFNDLEDCDQIHVDDVSSDDNGQDLSTYNFSADGFHSSAPGANLCLGSGVHGGVDWMRKLAFRYRRVKEMYNTYKNNVGGLIGTPKRETWLQLRAELEALTDLWLTHSLKALNLINSRPNCVNVLVTTTQLIPALAKVLLYGLGSVFPIENIYSATKTGKESCFERIMQRFGRKAVYVVIGDGVEEEQGAKKHNMPFWRISCHADLEALRHALELEYL", "soluble on expression in E. coli": "not soluble"}
{"sequence": "MGSPAHRPALLLLLPPLLLLLLLRVPPSRSFPGSGDSPLEDDEVGYSHPRYKDTPWCSPIKVKYGDVYCRAPQGGYYKTALGTRCDIRCQKGYELHGSSLLICQSNKRWSDKVICKQKRCPTLAMPANGGFKCVDGAYFNSRCEYYCSPGYTLKGERTVTCMDNKAWSGRPASCVDMEPPRIKCPSVKERIAEPNKLTVRVSWETPEGRDTADGILTDVILKGLPPGSNFPEGDHKIQYTVYDRAENKGTCKFRVKVRVKRCGKLNAPENGYMKCSSDGDNYGATCEFSCIGGYELQGSPARVCQSNLAWSGTEPTCAAMNVNVGVRTAAALLDQFYEKRRLLIVSTPTARNLLYRLQLGMLQQAQCGLDLRHITVVELVGVFPTLIGRIGAKIMPPALALQLRLLLRIPLYSFSMVLVDKHGMDKERYVSLVMPVALFNLIDTFPLRKEEMVLQAEMSQTCNT", "soluble on expression in E. coli": "soluble"}
{"sequence": "MNGYQITFFTQQDRHHAGKPLADWLMHLAAEMGLRGATLIPGSEGMGHDKRFHSVHFFELSDQLLEVVMVVSEEEADQLFARLRAEGVRLFYVKVAAEFGIMD", "soluble on expression in E. coli": "not soluble"}
{"sequence": "MSLSQPIKLGIITDRVGAAKPYAEPVLQGAQVAAKELNASGGVLGRPIELLVEDDQGRPDLSATAARKMVDSGVAFILSISWTSATQQAQSVTVETGTPHLAPSNSGDTLTTQIANPNFWQTGPLASSQVSTLLAYARSKSFKRVAIIGDNTGLGQLMTQSFKAGIEAAKIQVVSEEVVPRGANSADAQIQRVRASNPDAIFLTGILAPENTLILRAYRLLGLKAPLLGNFSFSNIQYASVAKGLLDGLVFIDAFDPTKPQVQRFIATYTKAAGTAPDNINAYGYDGVMLVADAIRRAGGTDKLKVRDAMQATKGFVGVLGAQGASYGFANGKRTGFDGDGLVVRIYEGDRQGKVQFTGTREGHHHHHH", "soluble on expression in E. coli": "soluble"}
{"sequence": "MGSDKIHHHHHHMEFEFCVQDPTDPGTRYLYEAIIGAAADATTWRGMYAFATRGGVDQLIEDPVVHEFMRRGGEIDLIVGIDAVTNRQTLERMQALEERHEHFHPKVFWNTTGGLFHPKISHFGYADGRTKLILGSGNLTPGGLRHNFEGYSVISGGRREAIDLSSLDAFIARHEADIRPIDQAALDRAALNIVRPVAALPGPRAPQLRPPRAVSREAVLDRILLAQVPAAGGRWSQVHFNTQITEQYFRVTDVATQRVYLTSIDAAGLRGEEEVRPVVFSQANGNHKIEIAAAKGLDYPDSPPLLVFRERQVRCFDYMLLMPDSPGYGELLGLSQALPTIGRGLRRAITDMATLSQAWPACPLLTAGDALDQTI", "soluble on expression in E. coli": "not soluble"}
